To fix the notation:
B1: 15C5 (IgG1) (antibody, V domains shown)
VH: DVQLQESGPGLVNPSQSLSLTCSVTGYSITSDYYWNWIRQFPGNKLEWMGYITYDGTNNYNPFFKNRISITRDTSQNQFFLKLNSVTTEDTATYYCARDGRYWYFDVWGAGTTVTVSS
VL: QIVLTQSPTLMSAFPGEKVTMTCSASSSVSYMYWYQQKPGSSPKPWIYLTSNLASGVPARFSGSGSGTSYSLTISSMEAEDAATYYCQQWNNSPPTFGAGTKLELK
notes: also called humanized analog of the 15C5 mouse mAb
B2: RUPA-115 (antibody, V domains shown)
VH: EVQLVESGGGLVQPGRSLRLFCAASGFNFDDYAMHWVRQAPGKGLEWVSGISWNSGTLAYADFVMGRFTISRDTAKNSLYLQMNSLRAEDTAFYYCAKDLKKYISSSLDYWGQGTLVTVFS
VL: QSALTQPRSVSGSPGQSVTISCTGTSSDVGAYNFVSWFQHHPGKAPKLMIYDVTKRPSGVPDRFSASKSGNTASLTISGLQAEDEAEYYCCSYAGTYHVVFGGGTKLTVL
notes: also called RUPA-115 (IgG1)
B3: RUPA-96 (antibody, V domains shown)
VH: B2 VH with F21S, A24V, N28T, D31N, M83L, A88T, F93L, L100I, K102M
VL: B2 VL with I20V, S26N, M49I, V53I
notes: also called RUPA-96 (IgG1)
B4: RUPA-38 (antibody, V domains shown)
VH: EVQLVESGGGLVQPGRSLRLSCAVSGFNFEDYAMHWVRQTPGKGLEWVSGISWNSGTLAYGDFVQGRFIISRDNAKNFLYLQMNSLRPEDTALYYCANDRMRWIQVPHYWGQGTLVTVSS
VL: B2 VL with Q1L, S26N, S27D, A31E, F34Y, F38Y, H40Q, E87N, V99M
notes: also called RUPA-38 (IgG1)
B5: RUPA-62 (antibody, V domains shown)
VH: EVQLVESGGGLVQPGRSLRLSCAASGFTFDDYAMHWVRQAPGKGLEWVSGISWNSGSIGYADSVNGRFTISRDNAKKSLYLQMNSLRPEDTALYYCAKDTHEYSSSPGDYWGQGTLVTVSS
VL: B2 VL with A31G, N33T, F38S, H40Q, T54S, A66G, E87D
notes: also called RUPA-62 (IgG1)
B6: RUPA-73 (antibody, V domains shown)
VH: EPQLVESGGGLVQPGRSLRLSCAGSGFTFGDYAMHWVRQAPGKGLEWVSGISWNSGTLAYAVFVEGRFTISRDNAKNSLYLQMNSLRPEDTAFYYCAKDVKNYVSGGCSDWGQGSLVTVSS
VL: B2 VL with A31G, N33E, F38Y, H40Q, H41Y, M49I, D62A, R63H, E87D, V100L
notes: also called RUPA-73 (IgG1)
B7: RUPA-39 (antibody, V domains shown)
VH: DVQLVESGGGLVKPGGSLRLSCAASGFTFSSYTMNWVRQAPGKGLEWVSSISTNIRYIYYADSVKGRFTISRDNAKNSLFLQMDSLRAEDTAVYYCATIAGPLSLKGDFYFDSWGQGTLVTVSS
VL: EIVMTQSPATLSVSPGERATLSCRASQSVSSSLAWYQQKPGQAPRLLIHGASTRATGIPTRFSGSGSGTEFTLTISSLQSEDFAVYYCQQYANWPPWTFGQGTKVESK
notes: also called RUPA-39 (IgG1)
B8: RUPA-55 (antibody, V domains shown)
VH: B7 VH with S30N, Y110F, S124P
VL: B7 VL
notes: also called RUPA-55 (IgG1)
B9: RUPA-32 (antibody, V domains shown)
VH: EVQLVESGGGLVKPGGSLRLSCAASGFAFSTYAMSWVRQAPGKGLEWVSSISESSSYTYYTDSVKGRFTISRDNAKKSLFLHMNSLRAEDTAVYYCARSDGLSMIAAPFDYWGQGARVTVSS
VL: EIVLTQSPATLSLSPGERATLSCRTSQSLSISLVWYQQKPGQAPRLLISDASNRAPGIPARFSASGSGTDFTLTISSLEPEDFAVYYCQQRSNWPPITFGQGTRLEMK
notes: also called RUPA-32 (IgG1)
B10: RUPA-103 (antibody, V domains shown)
VH: EVQLVESGGGLVKPGGSLRLSCAASGFTFSSYSMNWVRQAPGKGLEWVSSISSGSSYKYYSDSVKGRFTISRDNAKNSLYLQMNTLRAEDTAVYYCARAPEPGLLWFGEWGDYWGQGTLVTVSS
VL: EIVLTQSPVTLSLSPGERATLSCRASQSISSSLAWYQQKPGQAPRLLIYDASNRATGIPARFSGSGSGTDFTLTISSLEPEDFAVYYCQQRSIWPPITFGQGTRLEIQ
notes: also called RUPA-103 (IgG1)
B11: RUPA-126 (antibody, V domains shown)
VH: QVQLVQSGAEVKKPGASVTVSCKASGYTFTDYYLHWVRQAPGHGLEWMGWINPNSGITEYAQKFQGRVTVTRDTSISTIYMDLSRLRSDDTAIYYCVRRERGSPYTLFDYWGQGTLVIVSS
VL: QSVLTQPPSASGTPGQRVTISCSGGDSNIGTNYGYWYQQFPGTAPKLLIYWNNRRPSGVPDRFSGSKSGTSVFLAISGLRSEDEADYYCAAWDDSLSAPVFGGGTKLTVI
notes: also called RUPA-126 (IgG1)
B12: RUPA-133 (antibody, V domains shown)
VH: QVQLVQSGAEVKKPGASVNVSCMPSGYTFSDYFLHWVRQAPGQGLEWMGWINPNSGLTKYAQKFQGRVTMTSDTSISTVYLDLSRLRSDDTAIYFCVRRERGSPYTLFDYWGQGTLVTVSS
VL: B11 VL with D26A, G34V, F40L, F73S, A98G
notes: also called RUPA-133 (IgG1)
B13: RUPA-33 (antibody, V domains shown)
VH: EVQLVESGGGLVQPGRSLRLSCAASGFTFDDYAVHWVRQVPGKGLEWVSGISWNSATLAYADSVTGRFTISRDNARNSLYLQMNSLRIEDTALYYCARALPERTYGHRAFDYWGRGTQVTVSS
VL: QSALTQPRSVSGSPGQSVTISCTGTSSDVGYFTFVSWYQQHPGEVPKLIIYDVTKRPSGVPDRFSGSKSGNTASLTISGLQSDDEADYYCCSYAGTYHIRFGGGTKLTVL
notes: also called RUPA-33 (IgG1)
B14: RUPA-137 (antibody, V domains shown)
VH: QITLKESGPALVKPTQTLTLTCTFSGFSLTSSGVGVVWVRQPPEKALEWLALIYWDDDRRYSPSLETRLNISKDTSKNQVVLTMTNMDPLDTATYFCAHSRASGWYGYWGQGTLVTVSS
VL: QSVLTQPPSASGTPGQRVTISCSGSRSNLGTNFVYWYQQLPGTAPKLLIYKNYQRPSGVPDRFSGSKSGTSASLSISGLRSEDEADYYCAAWDDNLNGFYVFGTGTKLTVV
notes: also called RUPA-137 (IgG1)
B15: RUPA-135 (antibody, V domains shown)
VH: EVQLVDSGGGLVQPGGSLKLTCATSGFFFSGSAMHWVRQASGKGLEWVGRIRSKGNNYATAYAASVKGRFTISRDDSKNTAYLQMDSLKTEDTAVYYCSSRNSKVPDYWGQGTLVTVSS
VL: QSVLTQPPSASGTPGQRVTIFCSGSSSNIGSNFVYWYQQLPGAAPKLLIYRNHQRPSGVPDRLSGSKSGTSASLAISGLRSEDEADYYCAAWDDSLNVQVFGGGTKVTVL
notes: also called RUPA-135 (IgG1)
B16: RUPA-136 (antibody, V domains shown)
VH: EVQLVESGGGLVRPGGSLRLSCAASGFNFSAYGMNWVRQAPGRGLEWISYISHNTSIIHYADSVKGRFTISRDNGANSLYLQLNTLRDGDTAVYYCVRDCATLIGGRLPICQYFFDYWGQGALVTVSS
VL: SYELTQPSSVSVSLGQTASITCSGDMLTGKYVRWFQQKPGQAPILVIYKDRKRPSGIPDRFSGSSSGTTVTLIINGARIEDEADYYCYSAAARKRVFGGGTKLTVL
notes: also called RUPA-136 (IgG1)

Residue numbers refer to the chain shown, from its start.

T1 sequence (P68874 443-731): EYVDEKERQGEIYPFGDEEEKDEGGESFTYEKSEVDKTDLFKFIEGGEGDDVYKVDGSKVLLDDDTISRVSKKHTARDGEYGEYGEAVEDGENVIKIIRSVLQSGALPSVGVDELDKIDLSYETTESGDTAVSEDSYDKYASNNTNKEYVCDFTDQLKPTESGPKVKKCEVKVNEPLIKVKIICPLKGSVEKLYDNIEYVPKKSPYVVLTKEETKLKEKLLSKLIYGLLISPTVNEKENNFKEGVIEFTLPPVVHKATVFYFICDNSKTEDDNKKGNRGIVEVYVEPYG

The first assay addresses T1, Pfs230 C1 (Plasmodium falciparum 3D7 (clone of …, UniProt P68874)). Put plainly: SPR. To be noted: both partners purified.
As to B1, the binding result is reported as “binds”.

In a further assay the target is native Pfs230 (gametocyte extract) (Plasmodium falciparum NF54 (3D7 is its …, UniProt P68874)). Put plainly: […]; 5 μg/ml mAb in PBST; […]. Conditions: one partner purified.
Chain of native Pfs230 (gametocyte extract) (Plasmodium falciparum NF54 (P68874 21-3135): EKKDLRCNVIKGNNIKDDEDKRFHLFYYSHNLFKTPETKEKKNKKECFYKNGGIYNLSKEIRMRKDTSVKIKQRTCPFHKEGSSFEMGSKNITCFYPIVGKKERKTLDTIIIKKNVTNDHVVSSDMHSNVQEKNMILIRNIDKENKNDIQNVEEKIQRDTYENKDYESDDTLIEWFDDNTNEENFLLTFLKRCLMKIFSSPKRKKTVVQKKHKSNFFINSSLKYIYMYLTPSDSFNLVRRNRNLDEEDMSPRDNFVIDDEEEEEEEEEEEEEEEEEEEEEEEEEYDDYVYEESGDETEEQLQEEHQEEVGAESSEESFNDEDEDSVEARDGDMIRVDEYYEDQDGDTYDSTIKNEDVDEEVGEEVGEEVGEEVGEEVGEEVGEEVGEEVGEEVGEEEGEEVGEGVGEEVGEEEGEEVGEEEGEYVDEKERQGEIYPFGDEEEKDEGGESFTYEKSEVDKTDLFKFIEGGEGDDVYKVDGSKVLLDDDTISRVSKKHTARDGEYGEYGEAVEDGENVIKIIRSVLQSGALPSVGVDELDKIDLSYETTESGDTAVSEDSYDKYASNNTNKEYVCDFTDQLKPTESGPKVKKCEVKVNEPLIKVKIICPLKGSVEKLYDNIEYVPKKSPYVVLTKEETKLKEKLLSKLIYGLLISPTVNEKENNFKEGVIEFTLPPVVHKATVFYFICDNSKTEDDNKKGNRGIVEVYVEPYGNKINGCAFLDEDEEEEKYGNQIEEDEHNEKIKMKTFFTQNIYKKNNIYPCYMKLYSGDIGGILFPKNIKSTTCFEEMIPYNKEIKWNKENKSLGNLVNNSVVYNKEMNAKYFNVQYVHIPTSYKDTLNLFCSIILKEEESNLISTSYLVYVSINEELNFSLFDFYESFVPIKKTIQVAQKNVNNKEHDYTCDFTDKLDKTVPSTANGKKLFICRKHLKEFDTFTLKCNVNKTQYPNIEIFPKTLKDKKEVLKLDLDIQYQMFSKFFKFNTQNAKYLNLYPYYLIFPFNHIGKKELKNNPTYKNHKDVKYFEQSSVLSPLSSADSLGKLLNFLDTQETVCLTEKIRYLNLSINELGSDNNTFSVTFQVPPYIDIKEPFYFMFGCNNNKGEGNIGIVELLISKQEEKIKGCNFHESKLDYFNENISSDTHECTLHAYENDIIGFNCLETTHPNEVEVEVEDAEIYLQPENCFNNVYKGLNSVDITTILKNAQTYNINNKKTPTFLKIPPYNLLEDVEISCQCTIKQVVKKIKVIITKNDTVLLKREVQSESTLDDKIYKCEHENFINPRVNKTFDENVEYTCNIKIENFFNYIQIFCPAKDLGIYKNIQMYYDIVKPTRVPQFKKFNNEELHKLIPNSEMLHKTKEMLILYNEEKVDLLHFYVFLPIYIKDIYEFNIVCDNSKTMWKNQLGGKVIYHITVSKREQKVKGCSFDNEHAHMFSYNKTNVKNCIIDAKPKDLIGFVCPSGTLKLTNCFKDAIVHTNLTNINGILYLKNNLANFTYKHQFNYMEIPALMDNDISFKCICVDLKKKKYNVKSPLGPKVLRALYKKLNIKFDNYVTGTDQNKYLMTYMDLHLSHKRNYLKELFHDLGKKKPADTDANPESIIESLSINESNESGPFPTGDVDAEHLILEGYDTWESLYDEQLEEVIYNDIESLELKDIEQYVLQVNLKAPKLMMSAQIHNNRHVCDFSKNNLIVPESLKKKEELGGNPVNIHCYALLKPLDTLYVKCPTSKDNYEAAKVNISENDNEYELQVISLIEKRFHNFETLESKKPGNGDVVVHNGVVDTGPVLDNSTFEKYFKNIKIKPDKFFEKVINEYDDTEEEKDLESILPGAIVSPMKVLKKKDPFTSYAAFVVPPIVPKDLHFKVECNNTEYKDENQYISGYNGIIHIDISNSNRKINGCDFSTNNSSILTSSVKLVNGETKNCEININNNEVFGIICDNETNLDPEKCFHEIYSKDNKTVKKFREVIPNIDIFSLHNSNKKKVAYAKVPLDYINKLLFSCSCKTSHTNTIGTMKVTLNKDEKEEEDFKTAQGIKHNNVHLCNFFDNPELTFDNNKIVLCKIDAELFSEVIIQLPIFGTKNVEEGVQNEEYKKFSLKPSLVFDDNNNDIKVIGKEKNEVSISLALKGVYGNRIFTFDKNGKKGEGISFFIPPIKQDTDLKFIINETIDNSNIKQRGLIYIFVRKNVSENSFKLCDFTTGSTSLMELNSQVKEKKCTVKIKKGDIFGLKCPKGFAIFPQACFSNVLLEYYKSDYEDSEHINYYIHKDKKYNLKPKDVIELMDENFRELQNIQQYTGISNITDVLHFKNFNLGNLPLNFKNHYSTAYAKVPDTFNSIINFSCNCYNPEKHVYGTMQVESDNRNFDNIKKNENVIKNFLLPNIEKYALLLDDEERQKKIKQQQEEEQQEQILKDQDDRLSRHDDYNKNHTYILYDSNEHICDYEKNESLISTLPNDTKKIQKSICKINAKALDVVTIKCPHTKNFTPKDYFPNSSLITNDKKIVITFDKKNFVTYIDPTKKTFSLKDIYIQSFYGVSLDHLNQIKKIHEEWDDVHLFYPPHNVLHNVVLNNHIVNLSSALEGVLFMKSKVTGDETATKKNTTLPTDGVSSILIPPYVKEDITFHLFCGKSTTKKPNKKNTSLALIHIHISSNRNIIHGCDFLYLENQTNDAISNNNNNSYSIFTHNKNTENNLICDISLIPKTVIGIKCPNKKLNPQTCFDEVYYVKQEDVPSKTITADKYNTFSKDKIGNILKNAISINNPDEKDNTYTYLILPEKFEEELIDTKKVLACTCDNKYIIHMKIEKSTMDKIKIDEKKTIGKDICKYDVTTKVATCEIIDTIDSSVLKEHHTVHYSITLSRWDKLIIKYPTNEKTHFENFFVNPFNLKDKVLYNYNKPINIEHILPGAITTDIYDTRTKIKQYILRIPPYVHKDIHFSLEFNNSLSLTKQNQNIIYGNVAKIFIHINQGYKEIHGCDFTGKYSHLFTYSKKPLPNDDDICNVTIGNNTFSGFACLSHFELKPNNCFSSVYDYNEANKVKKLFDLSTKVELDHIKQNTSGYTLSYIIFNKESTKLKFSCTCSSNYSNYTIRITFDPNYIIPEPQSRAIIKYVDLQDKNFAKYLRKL
B2: the binding result is “binds”.

B3: the binding result is listed as “binds”. The same measure, in the same setting: as for B4, the entry is “binds”; as for B5, “binds”; as for B6, “binds”.

In the case of B7, the binding result is reported as “binds”.

Consider B8, for which the binding result is reported as “binds”. With B9, the binding result is listed as “binds”. Still for that read-out and setting: for B10 the value was “binds”; for B11, “binds”.

Turning to B12, the binding result was “binds”. Same read-out and setting: as for B13, the entry is “binds”.

The target in a further assay is Pfs230 Pro (Plasmodium falciparum 3D7 (clone of …, UniProt P68874)). Put plainly: ELISA. To be noted: both partners purified.
Chain of Pfs230 Pro (Plasmodium falciparum 3D7 (P68874 443-590): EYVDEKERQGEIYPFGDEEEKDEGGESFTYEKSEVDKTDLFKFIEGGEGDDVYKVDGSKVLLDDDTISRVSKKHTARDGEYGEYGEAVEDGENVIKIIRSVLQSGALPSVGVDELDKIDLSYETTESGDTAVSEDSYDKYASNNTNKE
As to B14, the binding result is “binds”. In the case of B15, the binding result is “binds”.

In the case of B16, the binding result is listed as “binds”.

The target in a further assay is T1, Pfs230 C1. Put plainly: ELISA. To be noted: both partners purified. Background: In an ELISA, binding on a coated surface is turned into a signal by an enzyme label.
On to B2, for which the binding result is reported as “binds”. For the molecule B3, the binding result is “binds”. The same measure, in the same setting: as for B4, the entry is “binds”. Still for that read-out and setting: for B5 the value was “binds”; for B6, “binds”; for B14, “binds”.

Regarding B7, the binding result is “binds”.

Take B8: the binding result was “binds”. Still for that read-out and setting: for B9 the value was “binds”; for B15, “binds”. On the same count and under the same terms, as for B10, the entry is “binds”. On the same count and under the same terms, for B16 the value was “binds”; for B11, “binds”. Take B12: the binding result was “binds”.

As to B13, the binding result is “binds”.

(Values after paper PMC9942874 (Immunity, 2023).)
